Measurements published in patent US6875599B2, “Mammalian secreted group III phospholipase A2” (Centre National de la Recherche Scientifique - CNRS, priority 2000, dated 2005).

How the values were obtained:
[1] = Initial rate of hydrolysis of small unilamellar vesicles of phosphatidylglycerol and phosphatidylcholine; format: biochemical, human; conditions: Q-Sepharose purified hGIII sPLA2; data not shown
Protocol: (§1) Studies to measure the initial rate of hydrolysis of small unilamellar vesicles of phosphatidylglycerol (1-palmitoyl-2-([9,10[^3H])-palmitoyl-sn-glycero-3-phosphoglycerol in 1-palmitoyl-2-oleoyl-sn-glycero-3-phosphoglycerol at 50 Ci/mol) and phosphatidylcholine (1-palmitoyl-2-([9,10[^3H])-palmitoyl-sn-glycero-3-phosphocholine, 50 Ci/mol) were carried as described (8) using Q-Sepharose purified hGIII sPLA2. Initial rates were calculated from 3 time points in the linear portion of the product versus time curve. pH-rate profiles for the hydrolysis of phosphatidylcholine were obtained as described (8). The Ca^2+ dependency of phospholipid hydrolysis was carried out with the fluorimetric assay (described above) with 10 μM EGTA (no Ca^2+) or with CaCl2 in excess of EGTA to give 10-650 μM Ca^2+.

[2] = pH-rate profile for the hydrolysis of phosphatidylcholine; format: biochemical, human; conditions: Q-Sepharose purified hGIII sPLA2
From the text: as §1, with “FIG. 4 presents the enzymatic properties of hGIII sPLA2. A, Ca^2+ dependency of the hydrolysis of 1 -palmitoyl-2-(10-pyrenedecanoyl)-sn-glycerol-3- phosphomethanol vesicles by Q-sepharose purified hGIII sPLA2. B, pH dependency of the hydrolysis of phosphatidylcholne vesicles by Q-Sepharose purified gGIII sPLA2. Studies” for “Studies”

B1: hGIII sPLA2: novel human secreted group III phospholipase A2, SEQ ID No. 2, expressed recombinantly in COS cells and partially purified on Q-Sepharose (protein, listed as Homo sapiens)
chain: MGVQAGLFGMLGFLGVALGGSPALRWYRTSCHLTKAVPGNPLGYLSFLAKDAQGLALIHARWDAHRRLQACSWEDEPELTAAYGALCAHETAWGSFIHTPGPELQRALATLQSQWEACRALEESPAGARKKRAAGQSGVPGGGHQREKRGWTMPGTLWCGVGDSAGNSSELGVFQGPDLCCREHDRCPQNISPLQYNYGIRNYRFHTISHCDCDTRFQQCLQNQHDSISDIVGVAFFNVLEIPCFVLEEQEACVAWYWWGGCRMYGTVPLARLQPRTFYNASWSSRATSPTPSSRSPAPPKPRQKQHLRKGPPHQKGSKRPSKANTTALQDPMVSPRLDVAPTGLQGPQGGLKPQGARWVCRSFRRHLDQCEHQIGPREIEFQLLNSAQEPLFHCNCTRRLARFLRLHSPPEVTNMLWELLGTTCFKLAPPLDCVEGKNCSRDPRAIRVSARHLRRLQQRRHQLQDKGTDERQPWPSEPLRGPMSFYNQCLQLTQAARRPDRQQKSWSQ
With B1 as the molecule, how does the “Activity on anionic phosphatidylglycerol vesicles versus zwitterionic phosphatidylcholine vesicles, based on initial velocities” value [1] read?
The value was 11 fold.

What about the “pH of optimal activity on phosphatidylcholine vesicles” value [2] of the same molecule?
The value was 8 pH.
